Data on 72 sequences can be found in the supplement of paper PMC10567573.

± gives the standard deviation.

This series can be described thus: protein stability index of a GFP-peptide fusion (GPS, HEK-293T) (PSI 1-6); higher = more stable. Particulars: c terminus: a fixed tail appended.
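Note: 24-mer peptide tiles fused after GFP, lentivirally expressed, FACS-sorted into six equal bins by GFP/DsRed ratio, decoded by Illumina sequencing, PSI is the read-weighted mean bin number.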

For the sequence DAVTAALLIPKEDGVITASEDRTI [WDFY1], the protein stability index is, setting by setting: (treatment: DMSO) 4.7 ± 0.13; (treatment: MLN4924 1 uM, 8 h) 4.86 ± 0.27.
In the same order, the values of DCEMNSPQVPPSQPLRPWAGGDVP [DYRK1B] are 4.32 ± 0.13 and 4.62 ± 0.15.
In the same order, the values of DDHSVRVAREDVRESCPPLGLETL [CPXM2] are 4.85 ± 0.37 and 4.92 ± 0.18.
For the sequence DEGRLLLEFDLLIFSFGQLPLALV [SOAT2], the protein stability index (treatment: DMSO) came to 3.16 ± 0.11 and the protein stability index (treatment: MLN4924 1 uM, 8 h) is 2.81 ± 0.46.
In the same order, the values of DFNLCLFYLPSSPNLSLASEDEEE [SMG5] are 2.85 ± 0.21 and 3.14 ± 0.24.
In the same order, the values of DGIRGKVGHARGLHAWQINWPARQ [SPSB4] are 2.8 ± 0.19 and 2.67 ± 0.31.
In the same order, the values of DGKLFPSDGFRDCKKGDPKHGKRK [ELF3] are 5.1 ± 0.29 and 5.38 ± 0.26.
On to DGLDLDWEYPGSQGSPAVDKERFT [CHIT1], for which the protein stability index (treatment: DMSO) is 4.94 ± 0.21 and the protein stability index (treatment: MLN4924 1 uM, 8 h) stood at 5.04 ± 0.19.
In the same order, the values of DGSDFQHRERVAMHYQMSVTLKYE [JAGN1] are 2.62 ± 0.26 and 2.87 ± 0.24.
As for DGTGRMPTLKKCEDVARPTQRLWD [GALNT9], the protein stability index turned out to be 4.01 ± 0.31 (treatment: DMSO) and 4.13 ± 0.19 (treatment: MLN4924 1 uM, 8 h).
In the same order, the values of DHMVRMHLYPADFRFDKPKKSRSP [ZNF511] are 3.42 ± 0.38 and 3.77 ± 0.43.
For DIAAGEELLYDYGDRSKASIEAHP [KMT5A], in that order: 5.09 ± 0.2 and 5.28 ± 0.19.
In the case of DIDVQLSSELTDSLRTLKPEGNIL [NOP53], the protein stability index is 4.1 ± 0.29 (treatment: DMSO) and 4.06 ± 0.36 (treatment: MLN4924 1 uM, 8 h).
With DILEEEKIYAYPSNITSETGFRTI [TMEM192], the protein stability index is, setting by setting: (treatment: DMSO) 3.04 ± 0.33; (treatment: MLN4924 1 uM, 8 h) 3.4 ± 0.25.
In the same order, the values of DITQSIEDDPLLDAQLLPHHSLQA [TMEM192] are 4.15 ± 0.22 and 4.1 ± 0.37.
For DKAVEIEELTYIIKQDINSLNKQI [STX5], in that order: 2.91 ± 0.14 and 3.12 ± 0.56.
For DKNISPRENILVSLGAVGEGFHNY [SCD], in that order: 3.23 ± 0.49 and 3.18 ± 0.24.
As for DKVGLITLSDWAAAVESVLHLGLP [PPEF2], the protein stability index was found to be 2.5 ± 0.25 (treatment: DMSO) and 2.31 ± 0.64 (treatment: MLN4924 1 uM, 8 h).
In the same order, the values of DLDRMGVMTLPSDLRKHRRKLLSP [PPFIA4] are 3.72 ± 0.25 and 3.73 ± 0.12.
In the same order, the values of DLKPTGEIPKQVKVKKLKNLKTLD [DENND6A] are 4.24 ± 0.25 and 4.24 ± 0.31.
For DLQLTVGGAQASGTLIGVGQSVTA [MFSD9], in that order: 3.52 ± 0.34 and 3.6 ± 0.24.
For DLSKIIRTSSGTSREKTACAINKV [FAM98B], the protein stability index (treatment: DMSO) worked out at 3.06 ± 0.27 and the protein stability index (treatment: MLN4924 1 uM, 8 h) was determined as 3.19 ± 0.6.
For DLVMALSAGGHGGLLNDTSAPHLE [KCNA4], in that order: 2.8 ± 0.35 and 2.58 ± 0.26.
In the same order, the values of DMAGKIKLWDLRTTKCVRQYEGHV [DCAF4] are 2.56 ± 0.18 and 2.68 ± 0.35.
Consider DNQWMTQINRLQKLIDRLEKKDLK [NECAB1], for which the protein stability index is, setting by setting: (treatment: DMSO) 2.13 ± 0.43; (treatment: MLN4924 1 uM, 8 h) 3.16 ± 0.33.
For DPAPLWGPPPAQGSPGDGGLQDQV [EMID1], the protein stability index is 5.22 ± 0.27 (treatment: DMSO) and 5.2 ± 0.26 (treatment: MLN4924 1 uM, 8 h).
In the same order, the values of DPNFKMEHQNKRSPLHAAAEAGHV [EHMT1] are 4.89 ± 0.22 and 5.04 ± 0.18.
For DQDLRTYLDKAPPPGLPAETIKDL [CDK4], in that order: 5.07 ± 0.28 and 4.94 ± 0.2.
For DRENGSDNLPSSAGSGDKPLSDPA [TPD52L2], in that order: 5.49 ± 0.26 and 5.45 ± 0.29.
With DRMARPSGRSGHNTRGTGSSSSGV [CSNK1G3], the protein stability index was 4.87 ± 0.13 (treatment: DMSO) and 5.03 ± 0.098 (treatment: MLN4924 1 uM, 8 h).
For DRVLQWERIDCQGIPPSSKDKLGV [KLHDC2], in that order: 4.14 ± 0.36 and 3.99 ± 0.07.
In the same order, the values of DSEQNGQVTCSILAYLPFKLEKSI [PCDHGA10] are 2.16 ± 0.24 and 2.27 ± 0.41.
Consider DVEFLPVYHPSPEESRDPTLYANN [LPCAT4], for which the protein stability index is 4.88 ± 0.32 (treatment: DMSO) and 4.64 ± 0.054 (treatment: MLN4924 1 uM, 8 h).
For DVKARLEGEIATYRHLLEGEDCKL [KRT36], in that order: 4.22 ± 0.21 and 4.29 ± 0.075.
Take DVLAHQVPNAKKLRRKEQLWEKLA [NOP53]: the protein stability index by setting is: (treatment: DMSO) 2.84 ± 0.36; (treatment: MLN4924 1 uM, 8 h) 3.09 ± 0.29.
For DVNNLDPDLRSLFSRAGISEAQLT [WAS], in that order: 3.07 ± 0.41 and 3.34 ± 0.48.
For EAAEAETAKDNGEAEDQEEKEDAE [SRPK2], in that order: 5.55 ± 0.4 and 5.73 ± 0.29.
For EAAQVVPDGLGLDEAREEEGDREV [TRIB3], in that order: 5.63 ± 0.15 and 5.43 ± 0.45.
For EAEREFILNLKKKECKDRGFEYDG [NLN], the protein stability index is, setting by setting: (treatment: DMSO) 4.58 ± 0.41; (treatment: MLN4924 1 uM, 8 h) 4.91 ± 0.32.
EAFWAEWKDLTLSTRPEEGCSLHE [TCAP] registered a protein stability index (treatment: DMSO) of 3.98 ± 0.18 and a protein stability index (treatment: MLN4924 1 uM, 8 h) of 4 ± 0.2.
For EAGFHTVEAVAYAPKKELINIKGI [RAD51], in that order: 3.01 ± 0.054 and 3.19 ± 0.29.
For EAGIKVHDVRLNGSAAGHVLVKDN [TENT5C], in that order: 4.42 ± 0.17 and 4.61 ± 0.15.
In the same order, the values of EALQNFFSLACSLMGPSRMSLFSL [M1AP] are 2.89 ± 0.75 and 3.09 ± 0.74.
On to EANEEFALRVQQLVAKELGQTGTR [AUP1], for which the protein stability index runs as follows: (treatment: DMSO) 3.87 ± 0.35; (treatment: MLN4924 1 uM, 8 h) 3.99 ± 0.45.
Consider EAPEAELSQAPAEGPDLVPAALGS [HES6], for which the protein stability index stood at 5.5 ± 0.31 (treatment: DMSO) and 5.41 ± 0.35 (treatment: MLN4924 1 uM, 8 h).
For EAQEEFLRVLGSMCQRLRSMQYNG [DFFB], in that order: 2.27 ± 0.21 and 2.27 ± 0.21.
For EASSSPPEGSQDRNTSWGVVQEPP [TLE6], the protein stability index reads like this: (treatment: DMSO) 5.12 ± 0.28; (treatment: MLN4924 1 uM, 8 h) 5.2 ± 0.18.
For EDEDEDKEEEEEDCSEEYLERQLQ [TAF7L], in that order: 5.636 ± 0.049 and 5.76 ± 0.18.
For EDEEEEEGGEGEKEGEGEVGGEAV [TRIM55], in that order: 5.74 ± 0.24 and 5.7 ± 0.27.
For the sequence EDGHRTSTSAVPNLFVPLNTNPKE [ADD1], the protein stability index is, setting by setting: (treatment: DMSO) 4.89 ± 0.24; (treatment: MLN4924 1 uM, 8 h) 5.07 ± 0.11.
For EDHFPLLFSEASECMLLVFGIDVK [MAGEA10], the protein stability index reads like this: (treatment: DMSO) 2.73 ± 0.84; (treatment: MLN4924 1 uM, 8 h) 2.7 ± 0.77.
In the same order, the values of EEEDEILPRKDYESLDYDRCINDP [CLCN6] are 5.52 ± 0.17 and 5.48 ± 0.29.
In the same order, the values of EEEEAEDEEVVATAGDRLTEFRKG [IRX6] are 5.48 ± 0.34 and 5.6 ± 0.28.
In the case of EEEEEEEEEEDDLSELPPLEDMGQ [FKBP8], the protein stability index was determined as 5.37 ± 0.3 (treatment: DMSO) and 5.63 ± 0.12 (treatment: MLN4924 1 uM, 8 h).
Sequence EEKQASLWVQGDIFRSKLKNRPSS [CDC14A] gave a protein stability index (treatment: DMSO) of 3.89 ± 0.049 and a protein stability index (treatment: MLN4924 1 uM, 8 h) of 4 ± 0.25.
In the same order, the values of EEKSFWEMEKSFREEEKTFWKKYR [CCDC70] are 4.18 ± 0.68 and 4.232 ± 0.013.
For EEVDEDGSGTIDFEEFLVMMVRQM [TNNC2], in that order: 3.52 ± 0.15 and 3.79 ± 0.44.
For EEVDQMFQFASIDVAGNLDYKALS [MYL5], in that order: 4.27 ± 0.3 and 4.39 ± 0.27.
As to EEVSSTVHIETFTTRHGEVGSALH [C10orf62], the protein stability index came to 4.43 ± 0.36 (treatment: DMSO) and 4.57 ± 0.19 (treatment: MLN4924 1 uM, 8 h).
Consider EGFHNYHHSFPYDYSASEYRWHIN [SCD], for which the protein stability index is, setting by setting: (treatment: DMSO) 2.37 ± 0.18; (treatment: MLN4924 1 uM, 8 h) 2.48 ± 0.18.
For EGNLAETENRYCVQLSQIQGLIGS [KRT17], in that order: 3.63 ± 0.15 and 3.94 ± 0.12.
In the same order, the values of EGRGGRPGSTRPHRSACSSAAVRG [HAGHL] are 4.52 ± 0.17 and 4.58 ± 0.19.
For EGYWLPGDEISIKKKNTNKQEMGT [ZMYND11], in that order: 4.7 ± 0.17 and 4.58 ± 0.084.
Take EIIRVILKLYEQWKNFDERKEMAT [CCNC]: the protein stability index (treatment: DMSO) was 2.09 ± 0.52 and the protein stability index (treatment: MLN4924 1 uM, 8 h) is 2.38 ± 0.3.
In the same order, the values of EILEQQQQERNDTNFHGVCMFCNE [ZNF277] are 3.73 ± 0.37 and 3.77 ± 0.43.
In the same order, the values of EIPWTSLTRKGLVRVVFFPLFSNW [PHTF1] are 3.09 ± 0.89 and 2.84 ± 0.23.
In the same order, the values of EIRDWRGPQLEGEKDWGLEGYVWR [ZSWIM9] are 3 ± 0.56 and 3.29 ± 0.57.
In the case of EITEELPSSQLMPVKKQLQGASWE [ZNF396], the protein stability index runs as follows: (treatment: DMSO) 4.09 ± 0.14; (treatment: MLN4924 1 uM, 8 h) 4.38 ± 0.22.
In the same order, the values of EKAFIAHFQDNLHSVNRDLNELER [MED27] are 3.85 ± 0.23 and 4.09 ± 0.2.
In the same order, the values of EKDERQRTTKPMAQRSAHCSRPSG [CSNK1G1] are 5.12 ± 0.11 and 4.98 ± 0.29.
For EKEKAEIEAKEACDWLRATGFPQY [DLC1], in that order: 4.02 ± 0.24 and 4.09 ± 0.24.
EKKLTVRQDLEDRYAEHVAATQAL [C22orf31]: the protein stability index runs as follows: (treatment: DMSO) 4.55 ± 0.12; (treatment: MLN4924 1 uM, 8 h) 4.53 ± 0.21.
